Values quoted from earlier work, collected in PMC10966181.

Target: Tyr159 (UniProt position 159, ISIHVYGANIG)
Assay: kinetics
Conditions: Catalytically active Fe(II)-MDO turning over the substrate 3MPA

Row | Substance | pKa
1 | 3-mercaptopropionate dioxygenase (MDO, AvMDO) (Azotobacter vinelandii) | 9.2 ± 0.1
2 | 3-mercaptopropionate dioxygenase (MDO) H157N variant (Azotobacter vinelandii; H157N) | 9.9 ± 0.1
